Molecular target: SRC SH3 domain (GST-SH3(SRC)) 83-139 (Gallus gallus, UniProt P00523)
Test: fluorescence polarization competition

Row | Kd [µM] | Binder
1 | 0.55 | VSLARRPLPPLPRL [AGT(PP2) fusion]
2 | 7 | RAARPLPPLPP [AGT(PP3) fusion]
